Results published in patent US20240270839A1 (ELPISCIENCE SUZHOU BIOPHARMA, published 2024).
Where “and” joins values, the source holds several entries; their conditions need not be identical. Identical values can stand only once. Like-named read-outs stand apart in the source and are kept apart here.

Experiments:
[1] = target: human CLDN18.2 (hCLDN18.2), expressed on cells (human); experiment: cell-based or functional assay
[2] = target: T1, human CLDN18.2 (hCLDN18.2), expressed on cells (human); experiment: FACS, SNU620 cells over-expressing hCLDN18.2
T1 construct: the constructs in the cell lines are not described; also called Claudin18.2; HEK293-hCLDN18.2

[3] = target: T1, human CLDN18.2 (hCLDN18.2), expressed …; experiment: cell-based or functional assay; remark: listed apart in the source
[4] = target: T1, human CLDN18.2 (hCLDN18.2), expressed …; experiment: FACS, HEK293/hCLDN18.2 cells
[5] = target: T1, human CLDN18.2 (hCLDN18.2), expressed …; experiment: FACS, SNU620 cells (endogenous CLDN18.2)
[6] = target: T1, human CLDN18.2 (hCLDN18.2), expressed …; experiment: cell-based or functional assay; remark: listed apart in the source
[7] = target: T1, human CLDN18.2 (hCLDN18.2), expressed …; experiment: FACS, MFC cells over-expressing hCLDN18.2
[8] = target: T1, human CLDN18.2 (hCLDN18.2), expressed …; experiment: FACS, SNU620 cells (endogenous CLDN18.2); FACS, SNU620 cells (native CLDN18.2)
[9] = target: T1, human CLDN18.2 (hCLDN18.2), expressed …; experiment: FACS, HEK293/hCLDN18.2 cells; FACS, HEK293/hCLDN18.2 cells (stable over-expression)
[10] = target: T1, human CLDN18.2 (hCLDN18.2), expressed …; experiment: FACS, MFC cells over-expressing hCLDN18.2; MFC cells; first panel, run beside the hu22E12 H1 and H2 variants
[11] = target: T1, human CLDN18.2 (hCLDN18.2), expressed …; experiment: FACS, MFC cells over-expressing hCLDN18.2; MFC cells; second panel, run beside the hu22E12 H3 and H4 variants

Binder	ADCC EC50 (nM), NK-CD16a effector cells [1] [nM]	EC50 [4] [pM]	EC50 [5] [pM]	also measured
ch35B4 (antibody, V domains shown) VH: EAKLVESGGDFMQPGGSLKLSCAASGFTLSSYALSWVRQTPEKRLEWVAYISNLGGSTFYPDTVKGRFTISRDNARNTLFLQMSSLQSEDTAIYYCATHLYNYDAFASWGQGTLVTVSA VL: QIVLSQSPAILSASPGEKVTMTCRASSSVNYIHWYQQKPGSSPKAWIYATSNLASGVPTRFSGSGSGTSYSLTIDRVEAEDAATYYCQQWNSNPLTFGAGTKLELK	0.0803			PBMC VS NUGC4 ADCC (EC50 nM) [3]: 4.05 nM; EC50 [2]: 419 pM and 442 pM
33G12 (antibody, V domains shown, mouse hybridoma antibody, purified; also called clone 33G12) VH: EVKLVESGGGLVQPGGSLKLSCAASGFTFSRYAMSWVRQTPEKRLEWVAYISIGGTTYYPDTIKGRFTISRDNAKNTLYLQMSSLKSEDTAMYYCTRHYYGHDVMDYWGQGTSVTVSS VL: QIVLSQSPTILSASPGEKVTMTCRATSSVSYMHWFQQKPGSSPKPWIYATSNLASGVPARFSGSGSGTSYSLTISRVEAEDAATYYCQQWSRNPLTFGAGTKLELK		560	1100	
35B4 (antibody, V domains shown, mouse hybridoma antibody, purified; also called clone 35B4) VH: EAKLVESGGDFMQPGGSLKLSCAASGFTLSSYALSWVRQTPEKRLEWVAYISNLGGSTFYPDTVKGRFTISRDNARNTLFLQMSSLQSEDTAIYYCATHLYNYDAFASWGQGTLVTVSA VL: QIVLSQSPAILSASPGEKVTMTCRASSSVNYIHWYQQKPGSSPKAWIYATSNLASGVPTRFSGSGSGTSYSLTIDRVEAEDAATYYCQQWNSNPLTFGAGTKLELK		850	3800	
ch22E12 (antibody, V domains shown) VH: QVQLQQPGTELVKTGTSVKLSCKASGYTFTNWVHWVIQRPGQGLEWIGEINPTNGRSNYNEKFKKKATLTLDRSSTTAYMQLSSLTSEDSAVYFCAGIYYGNSFAHWGQGTLVTVSA VL: DIVMTQSPSSLTVTAGEKVTLSCKSSQSLLNSGNQKNYLTWYQQKPGQPPKLLIYWSSTRESGVPDRFTGSGSGTDFTLTISSVQAEDLAVYHCQNNYYYPLTFGAGTKLELK				PBMC VS NUGC4 ADCC (EC50 nM) [3]: 1.06 nM; ADCC EC50 (nM), NK-CD16a effector cells [6]: 0.126 nM; EC50 [7]: 1060 pM and 943 pM
97A9 (antibody, V domains shown, mouse hybridoma antibody, purified; also called clone 97A9) VH: QVQLQQSGPELVKPGASMKLSCKASGYSFTRNDINWVKQRPGQGLEWIGLSYPRDGTTQYNGKFKGKATLTVDTSSSTAYMELRSLTSEDSAVYFCARGYYGNSFAYWGQGTLVTVSA VL: DIVMTQSPSSLTVTAGEKVTMSCKSSQSLLNSGNQKNYLTWYQQKPGQPPKLLIYWASTRESGVPDRFTGSGSGTYFTLTISSVQAEDLAVYFCQNDYYFPYTFGGGTKLEIK		1600	3300	
22E12 (antibody, V domains shown, mouse hybridoma antibody, purified; also called clone 22E12) VH: QVQLQQPGTELVKTGTSVKLSCKASGYTFTNWVHWVIQRPGQGLEWIGEINPTNGRSNYNEKFKKKATLTLDRSSTTAYMQLSSLTSEDSAVYFCAGIYYGNSFAHWGQGTLVTVSA VL: DIVMTQSPSSLTVTAGEKVTLSCKSSQSLLNSGNQKNYLTWYQQKPGQPPKLLIYWSSTRESGVPDRFTGSGSGTDFTLTISSVQAEDLAVYHCQNNYYYPLTFGAGTKLELK		860	2100	
60F11 (antibody, V domains shown, mouse hybridoma antibody, purified; also called clone 60F11) VH: QVQLQQPGAELVKPGASVKLSCKASGYTFTSYWMHWVKQRPGQGLEWIGMIHPNSGSTNYNEKFKSKATLTVDKSSSTAYMQLSSLTSEDSAVYYCARMGLGNAMDYWGQGTSVTVSS VL: DIVMTQSPSSLTVTAGEKVTLSCKSSQSLLNSGNQRNYLTWYQQKPGQPPKLLIYWASTRESGVPDRFTGSGSGTDFTLTISSVQAEDLAVYYCQNAYSYPLTFGAGTKLELK				EC50 [8]: 3500 pM; EC50 [9]: 810 pM
99H8 (antibody, V domains shown, mouse hybridoma antibody, purified; also called clone 99H8) VH: QVQLQQSGPELVKPGASVKLSCKASGYSFTNFDINWVKQRPGQGLQWIGRLYPRDGTTTYNEKFKGKASLTVDTSSTTSYMDLHSLTSEDSAVYFCVRGNYGNSFAYWGQGTLVTVSA VL: DIVMTQSPSSLTVTAREKVIMNCKSSQSLFNSGNQKNYLTWYQQKPGQSPKLLIYWASTRQSGVPDRFTGSGSGTDFTLTISTVQAEDLAVYFCQNGFSFPYTFGGGTKLEMN		1100	19000	
IMAB362 (Zolbetuximab) (antibody, human IgG1, kappa, V domains shown) VH: QVQLQQPGAELVRPGASVKLSCKASGYTFTSYWINWVKQRPGQGLEWIGNIYPSDSYTNYNQKFKDKATLTVDKSSSTAYMQLSSPTSEDSAVYYCTRSWRGNSFDYWGQGTTLTVSS VL: DIVMTQSPSSLTVTAGEKVTMSCKSSQSLLNSGNQKNYLTWYQQKPGQPPKLLIYWASTRESGVPDRFTGSGSGTDFTLTISSVQAEDLAVYYCQNDYSYPFTFGSGTKLEIKR				PBMC VS NUGC4 ADCC (EC50 nM) [3]: 25.1 nM; ADCC EC50 (nM), NK-CD16a effector cells [6]: 0.228 nM; EC50 [9]: 710 pM; EC50 [10]: 23500 pM; EC50 [11]: 42700 pM

Now from value to binder, other results behind:

ADCC EC50 (nM), NK-CD16a effector cells [1] [nM]	EC50 [4] [pM]	EC50 [5] [pM]	Binder	also measured
7.1e-05			hu35B4.H1L2-ADE (antibody, human IgG1) heavy: EVQLLESGGGLVQPGGSLRLSCAASGFTLSSYALSWVRQAPGKGLEWVSYISNLGGSTFYPDTVKGRFTISRDNSKNTLYLQMNSLRAEDTAVYYCAKHLYNYDAFASWGQGTLVTVSSASTKGPSVFPLAPSSKSTSGGTAALGCLVKDYFPEPVTVSWNSGALTSGVHTFPAVLQSSGLYSLSSVVTVPSSSLGTQTYICNVNHKPSNTKVDKKVEPKSCDKTHTCPPCPAPELLAGPDVFLFPPKPKDTLMISRTPEVTCVVVDVSHEDPEVKFNWYVDGVEVHNAKTKPREEQYNSTYRVVSVLTVLHQDWLNGKEYKCKVSNKALPAPEEKTISKAKGQPREPQVYTLPPSREEMTKNQVSLTCLVKGFYPSDIAVEWESNGQPENNYKTTPPVLDSDGSFFLYSKLTVDKSRWQQGNVFSCSVMHEALHNHYTQKSLSLSPGK VL: DIQLTQSPSFLSASVGDRVTITCRASSSVNYIHWYQQKPGKAPKALIYATSNLASGVPSRFSGSGSGTEYTLTISSLQPEDFATYYCQQWNSNPLTFGQGTKLEIK	
9.43e-05			hu35B4.H1L2-VLPLL (antibody, human IgG1) heavy: EVQLLESGGGLVQPGGSLRLSCAASGFTLSSYALSWVRQAPGKGLEWVSYISNLGGSTFYPDTVKGRFTISRDNSKNTLYLQMNSLRAEDTAVYYCAKHLYNYDAFASWGQGTLVTVSSASTKGPSVFPLAPSSKSTSGGTAALGCLVKDYFPEPVTVSWNSGALTSGVHTFPAVLQSSGLYSLSSVVTVPSSSLGTQTYICNVNHKPSNTKVDKKVEPKSCDKTHTCPPCPAPELVGGPSVFLLPPKPKDTLMISRTPEVTCVVVDVSHEDPEVKFNWYVDGVEVHNAKTKPPEEQYNSTLRVVSVLTVLHQDWLNGKEYKCKVSNKALPAPIEKTISKAKGQPREPQVYTLPPSREEMTKNQVSLTCLVKGFYPSDIAVEWESNGQPENNYKTTPLVLDSDGSFFLYSKLTVDKSRWQQGNVFSCSVMHEALHNHYTQKSLSLSPGK VL: DIQLTQSPSFLSASVGDRVTITCRASSSVNYIHWYQQKPGKAPKALIYATSNLASGVPSRFSGSGSGTEYTLTISSLQPEDFATYYCQQWNSNPLTFGQGTKLEIK	
2.75e-05			hu35B4.H1L2-DE (antibody, human IgG1) heavy: not shown VL: DIQLTQSPSFLSASVGDRVTITCRASSSVNYIHWYQQKPGKAPKALIYATSNLASGVPSRFSGSGSGTEYTLTISSLQPEDFATYYCQQWNSNPLTFGQGTKLEIK	
1.32e-05			hu35B4.H1L2-DLE (antibody, human IgG1) heavy: EVQLLESGGGLVQPGGSLRLSCAASGFTLSSYALSWVRQAPGKGLEWVSYISNLGGSTFYPDTVKGRFTISRDNSKNTLYLQMNSLRAEDTAVYYCAKHLYNYDAFASWGQGTLVTVSSASTKGPSVFPLAPSSKSTSGGTAALGCLVKDYFPEPVTVSWNSGALTSGVHTFPAVLQSSGLYSLSSVVTVPSSSLGTQTYICNVNHKPSNTKVDKKVEPKSCDKTHTCPPCPAPELLGGPDVFLFPPKPKDTLMISRTPEVTCVVVDVSHEDPEVKFNWYVDGVEVHNAKTKPREEQYNSTYRVVSVLTVLHQDWLNGKEYKCKVSNKALPLPEEKTISKAKGQPREPQVYTLPPSREEMTKNQVSLTCLVKGFYPSDIAVEWESNGQPENNYKTTPPVLDSDGSFFLYSKLTVDKSRWQQGNVFSCSVMHEALHNHYTQKSLSLSPGK VL: DIQLTQSPSFLSASVGDRVTITCRASSSVNYIHWYQQKPGKAPKALIYATSNLASGVPSRFSGSGSGTEYTLTISSLQPEDFATYYCQQWNSNPLTFGQGTKLEIK	
0.02			hu35B4.H1L2 (antibody, V domains shown, humanized 35B4) VH: EVQLLESGGGLVQPGGSLRLSCAASGFTLSSYALSWVRQAPGKGLEWVSYISNLGGSTFYPDTVKGRFTISRDNSKNTLYLQMNSLRAEDTAVYYCAKHLYNYDAFASWGQGTLVTVSS VL: DIQLTQSPSFLSASVGDRVTITCRASSSVNYIHWYQQKPGKAPKALIYATSNLASGVPSRFSGSGSGTEYTLTISSLQPEDFATYYCQQWNSNPLTFGQGTKLEIK	EC50 [2]: 253 pM
